Measured values taken from the DeepSol protein solubility set.

Experiment: soluble on expression in E. coli; label from the status in PepcDB or PDB records

Row | Sequence | soluble on expression in E. coli
1 | MSLVPHHQPCPPASSLSAGPRGGVIMLILKNVTAVQLHPAKVQEGVDIAIENDVIVAIGDALTQRYPDASYKEMHGRIVMPGIVCSHNHFYSGLSRGIMANIAPSPDFISTLKNLWWRLDRALDEESLYYSGLICSLEAIKSGCTSVIDHHASPAYIGGSLSTLRDAFLKVGLRAMTCFETTDRNNGIKELQEGVEENIRFARQIDEAKKAATEPYLVEAHIGAHAPFTVPDAGLEMLREAVNATGRGLHIHAAEDLYDVSYSHHWYGKDLLARLAQFDLIDSKTLVAHGLYLSKDDIALLNQRDAFLVHNARSNMNNHVGYNHHLSDIRNLALGTDGIGSDMFEEMKFAFFKHRDAGGPLWPDSFAKALTNGNELMSRNFGAKFGLLEAGYKADLTICDYNSPTPLLADNIAGHIAFGMGSGSVHSVMVNGVMVYEDRQFNFDCDSIYAQARKAAASMWRRMDALAEGHHHHHH | soluble
2 | MDSKEVLVHVKNLEKNKSNDAAVLEILHVLDKEFVPTEKLLRETKVGVEVNKFKKSTNVEISKLVKKMISSWKDAINKNKRSRQAQQHHQDHAPGNAEDKTTVGESVNGVQ | soluble
3 | MIINLVKQLGTTRGYITLWTGIDSAIAALAVQGIASHRTQQYIDEYYPNIGGPLLNQDKEEDELTDAESFRRVIRNGFRDSVIRVVAVTAARPFAVCFARQVAQVIGNETKYTTCAQALAVIGKQEGPGGLFSGLAPQIVGELLVIWGVHLITHGIQRAILRIEFGDTKNKDETKAKAAKDVHKFIHTAVPFLVNSFGYPYSVVSTVMAVAGSGLAVSFLPYSPSFNNWHGAWDYLRPIGLKRGNRLFLREQVGAVTVGVDQQLYASNSYFA | not soluble
4 | MNHTSDTALLIVNLGTPEAPTAAAVRRYLGEFLSDRRVVSIPPLFWKPLLHMVILPIRGPRSASKYAKVWLQEGSPLSVYTRRIAEGLTQHLPDWRVAWAMRYGAPALTKALDALQAQQVRRIVILPLYPQYSTTTTASVQDVVEAWCKRTPQVQVECIQDYAEDPAWVAAVAASIRRHWQAHGRSEKLMFSFHGLPQRVANNGDPYPQRCQV | not soluble
5 | MGSDKIHHHHHHMAKFKIEIDSETCLGYKECGLCVSACEESIIVPDEKTGKVKVDKTREINCDGLGACLDVCPVGALKITSESGFSCGGHSGNPCPGSAVKSFNRSEQRSEMLQNKETESELLNWPVQLHLLNPNASYFKNADLIIAADCVPFAYPDFHNNLLKGKVLAIACPKLDDTKDYMLKIRQIVEKNNIKNVTVAIMTVPCCSGLYSLVNRALDGLDVNITKKVISLDGKLMD | not soluble
6 | MSLTENKELRDILGGYHDNIKSKIMENKLDEAIYLVDSLSATFKLPSSGYDRSSCTPYNNEVSEKYGIEEYVNASLIPTPRTLFIAAQNPKDEKRDVFTDLLMKSNTKLVVSLIDDPRYFEEEWLQDRKVIKYMNKDLFIDEIYNIRGRNIRRLRYINWVDFSVITREEMEVFHSYFDSVRTEVVLVHCIAGVGRTGTFIMYDILKRMENITLDTFIDVFLNLRSKRAHLVTNKIQLEFLKNIFLESEGHHHHHH | soluble
7 | MSTATSKFLSYVLRHAPESIGLVLDSQGWADVADLLAKANASGTPLDEAGLRAVVAESDKKRFTLSEDGRRIRAAQGHSVKVDLGQPPVEPPPQLFHGTATRFLEPILREGLRPGERQQVHLSADRTTALAVGQRHGKPVVLIVDAGQMFADGCRFYLADNGVWLTDAVPFSYLTVSADSSAENDRLEHHHHHH | soluble
8 | MPKQKASYEALLEEVVETLKHSPDGVNEIVESSAKYVDAANDLTKDELALISAYVKADLKEFSQSFEQSKSSPFYLMITNSIWQGLLDITDRTKVEWVELFADLEHQGLYQAGDMIGLGVLICDQCGHKTEFNHPTEIEPCSQCGGKAFSRQPLKP | not soluble
9 | MTSIIKLKVFSGAKDEGPLCYLLQVDGDYILLDCGWDERFGLQYFEELKPFIPKISAVLISHPDPLHLGGLPYLVSKCGLTAPVYATVPVYKMGQMFIYDMVYSHLDVEEFEHYTLDDVDTAFEKVEQVKYNQTVVLKGDSGVHFTALPAGHMLGGSIWRICRVTGEDIVYCVDFNHKKERHLNGCSFDNFNRPHLLITGAHHISLPQMRRKDRDEQLVTKILRTVRQKGDCMIVIDTAGRVLELAHLLDQLWSNADAGLSTYNLVMMSHVASSVVQFAKSQLEWMNEKLFKYDSSSARYNPFTLKHVTLCHSHQELMRVRSPKVVLCSSQDMESGFSRELFLDWCSDPRNGVILTARPASFTLAAKLVNMAERANDGVLKHEDRLISLVVKKRVALEGEELLEYKRRKAERDAEETRLRMERARRQAQANESDDSDDDDIAAPIVPRHSEKDFRSFDGSENDAHTFDIMAKWDNQQKASFFKTTKKSFPMFPYIEEKVKWDDYGEVIKPEDYTVISKIDLRKGQNKDEPVVVKKREEEEEVYNPNDHVEEMPTKCVEFKNRVEVSCRIEFIEYEGISDGESTKKLLAGLLPRQIIVVHGSRDDTRDLVAYFADSGFDTTMLKAPEAGALVDASVESFIYQVALSDALLADIQFKEVSEGNSLAWIDARVMEKEAIDNMLAVGTSNLMIDDKNREEDVNDQEENGATEGEGNAEPMEIGENGSQESLAISESGKEVENGHTNDSRTKKGTKGKIRGNLILDPLPKRLIPIHQAVFVNDPKLSDFKNLLTDKGYKAEFLSGTLLINGGNCSIRRNDTGVFQMEGAFTKDYYKLRRLFYDQFAVL | not soluble
10 | MAHHHHHHMQRNEVESLEGLVLLVQLRVLVAHHNAVTSLRPIAVLPALSFIDARSNKIEDVNPMEDLPCDSLKYLALLDNPCCNGDRSVDREQIMKACPKLAMLDDVPRDPSAEKVTGSEEEENSDEEDGCKRWHAVSETPTGCSKGVSSRIHLYRSLKMCEPLPVSVPSLEPIPVTSQDIDTNRVTTTTDRLCEQLRHRSSAIRRMAGHHALGQTEVSDPVWDFGNHVENDGDSEHRSNGRRRLDSPESTLSLTLPPELEQERATKARLYDDIRFALQADDRRLRQLAGVVWDDVDKVLSTRQALVGHRRHRMHTAHQQPSDAYAKSLEILKHENRVANLDKYRKQENANAPQ | not soluble
11 | DFEIMAPVGSRESLAAAIQAGADSIYFGIESLNMRARSASTFTVNDLREIAQICDKHGIKSYLTINTIIYDEDIALMRTIVDAAKEAGISAVIAADVAVMAYCCEVGQEVHLSTQLNISNAGALKFYARFADVVVLARELNLKQVRVIYDTIQKEQIKGPNGELVRIEMFCHGALCMAVSGKCYLSLHEMNASANRGACMQICRRAYDVKDKESDIELEVDNKYIMSPKDLKTIHFMDEMIEAGVRVFKIEGRARGPEYVRTVVECYKEAICSYLEGTFTEEKKQAWDERLKTVFNRGFWNGYYLGQRLGEWSKNYGSEATERKVYVGKGIKYFSNIGVAEFLVEAAEMKVGDKLLITGPTTGAVFLTLDEARVDLKPVDVVRKGQHVSFKVPDKVRPSDKLYKLVSPEDLK | not soluble
12 | MSLGDVVMNERELILAIETSCDETSAAVIENGTTILSNVVSSQIDSHKRFGGVVPEIASRHHVEQITVIVEEAMHEAGVDFADLAAVAVTEGPGLVGALLIGVNAAKAIAFAHQLPLIGVHHIAGHIYANRLLKELEFPLLALVVSGGHTELIYMENHGEFEVIGETRDDAVGEAYDKVARTLGLPYPGGPHIDRLAVNGEDTLQFPRAWLEPDSFDFSFSGLKSAVINTLHNAKQRGENVQAEDVAASFQASVIDVLVTKTKKAAEEYKVRQVLLAGGVAANKGLRTALEEAFFKEPIDLVIPPLSLCTDNAAMIGAAASIKFKQQTFAGMDLNGQPSLELENDEGHHHHHH | soluble
13 | MCVNFIPPSRGQLREWLGCDPGDGQWPDEAWQDYPAPILTRDGLRFASYGFIPKRHQPAGVRLSTMNARVETIGQLRSYRDAWRNCQLCLVPMQAFYEPCYESGRAVRTKISMADGAPFAVAGLWREWREADGSISLAFTQITIHADGHAVMGRMHRPGDEKRSLAIIPAALYQAWLHCRNPEQARAFLQLFSAEAMRAEGEIADPPRQGSLFDLEHHHHHH | not soluble
14 | MGHHHHHHSHMSSILPFTPPIVKRLLGWKKGEQNGQEEKWCEKAVKSLVKKLKKTGQLDELEKAITTQNVNTKCITIPRSLDGRLQVSHRKGLPHVIYCRLWRWPDLHSHHELRAMELCEFAFNMKKDEVCVNPYHYQRVETPVLPPVLVPRHTEIPAEFPPLDDYSHSIPENTNFPAGIEPQSNIPETPPPGYLSEDGETSDHQMNHSMDAGSPNLSPNPMSPAHNNLDLQPVTYCEPAFWCSISYYELNQRVGETFHASQPSMTVDGFTDPSNSERFCLGLLSNVNRNAAVELTRRHIGRGVRLYYIGGEVFAECLSDSAIFVQSPNCNQRYGWHPATVCKIPPGCNLKIFNNQEFAALLAQSVNQGFEAVYQLTRMCTIRMSFVKGWGAEYRRQTVTSTPCWIELHLNGPLQWLDKVLTQMGSPSIRCSSVS | soluble
15 | MGSDKIHHHHHHMIRKNHKPAFCDENPIDCHFDVKSYPAGTTVHNNDTNIIYLIFCMKGHARITSTFFHDEILCAGEVMFVPHGSEYSGVALSDVTLLVHKFNNTVCRAENCILSYLYSHKNIDSKIYCCQRRT | not soluble
16 | MSFAPMLLATINNSIGNKDKHVSLEYLIGLFMDKKTTNLSNTDKYIIGTIQTEALEQEIEWFSQDYHIPMENILHVLSINPYQ | not soluble
17 | MIHSMTAFSRIQKQFDVGDFCWEIRSVNHRYLDVSFRLPESFRFLEAELRTLLRDKIHRGKLECHLKYKDTSCDNRSMLINIGTINALLDLSSKLSASHHLANDMTVSQVLSWPGVVEANLLDMEELSQIALELFQKSIDKLCEVRAGEGRSLKAYVEDRLQALRQEVMKSKSIVVSMSAKTKDKLLTRLHELQMDVPEARVEQEIALLLAKLDVSEELDRLETHIAEVSRTLNAEKVTGRRLDFLMQELNREANTLSSKSDSAELTLCAVEMKVLIEQMREQIQNFE | not soluble
18 | MALLTSKLRYLLLFYAVFQAAQFGLRWKSYDISPKQFKTIAGKAAAAPTISQSISTLTSGMRTYYEPIMPSHFEWHAIQLGGLTLRMYPMLTAFTEFAAAFSAPFPTSGRPGLHWANTTCTVLKGKVSRFNDGTQDETSENFASGAAFRHGQFESHVYSFEKDTYVACYGRGFLPLSSTVHVTSGISLGEPLSVIQFYMKQAYNYWNNLSHTLYRVFQHYKARATGEL | not soluble
19 | MAALTASCIDLNIQGNGAYSVLKQLATIALQNGFITDSHQFLQTLLLREKMHSTGFGSGVAVPHGKSACVKQPFVLFARKAQAIDWKASDGEDVNCWICLGVPQSGEEDQVKIIGTLCRKIIHQEFIHQLQQGDTDQVLALLNQTLSS | not soluble
20 | MSLSKLDIPLSIMQKSVVIRPGGRQEMDEHVAIETPYAIALNDRVIGSSMVLPVDLEEFGAGFLFGQGYIKKAEEIREILVCPQGRISVYADVENEEPREVIITSGCGGTGKIPKEMLEGEFAPLADYCLPFAEIKSFIREALHSSPLGPQTHCVHGCGLWNNGRLQVYHEDVGRHNAVDKVLGSILLGRASNNSAVYTTGRLTSDMVLKCARIGIPIIMSRTSPSSLGLALAKRSGATLVAYSRPERINVFNAPERILTEGHHHHHH | soluble
21 | AHHHHHHGSAELKVSAIKEGTVIDHIPAGKGLKVIQILGLGELKNGGAVLLAMNVPSKKLGRKDIVKVEGKFLSEEEVNKIALVAPTATVNIIREYKVVEKFKVEIPDVIEGILKCGNPNCITHYEYVTPKFYVISKEPLKVRCHYCERTMEEEEILANL | soluble
22 | MAHHHHHHMAKVKMNPKLSSFTANAYEKKRQVGMYSKYIVDANPSGKDPSSSQTNKGNEYEEEDIVEKLRKREQSKQGGDYFMNAYKYTQPSAIIDYSSGEEQEYSQLLKKPKCPQCGVKNCVCGFMRSGGRRAR | soluble
